We go through one molecule from paper PMC6480404.

Series [1] concerns the target T1, AcrIIA2 (AcrIIA2a.1) (Listeria monocytogenes phage/prophage, UniProt PDB:6MCB_3 1-123).
T1 sequence: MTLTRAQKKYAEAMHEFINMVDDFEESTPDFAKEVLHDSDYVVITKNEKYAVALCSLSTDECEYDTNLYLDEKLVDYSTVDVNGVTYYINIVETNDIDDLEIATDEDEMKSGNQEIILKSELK
The experiment in a line: size-exclusion chromatography.

In series [2] the target is SpyCas9;AcrIIA2 (AcrIIA2a.1) (Streptococcus pyogenes;Listeria …, UniProt Q99ZW2;PDB:6MCB_3 1-1368;1-123, |). In words: cryo-EM.
Series [3] has as its target SpyCas9;AcrIIA2b (AcrIIA2b.3) (Streptococcus pyogenes;Listeria phage?, UniProt Q99ZW2;PDB:6MCC_3 1-1368;1-130, |). The experiment in a line: cryo-EM.

B1: sgRNA (structured_RNA)
RNA: GGCGCAUAAAGAUGAGACGCGUUUUAGAGCUAUGCUGUUUUGAAAAAAACAGCAUAGCAAGUUAAAAUAAGGCUAGUCCGUUAUCAACUUGAAAAAGUGGCACCGAGUCGGUGCUU
With B1, the binding result in series [1] was “no binding”; in series [2], “binds”; in series [3], “binds”.
